Data set [1] in a line: Quantum yield determination. It counts as physicochemical. The settings on record: for Quant. Yield: Table 5, in PBS. The procedure, abridged: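 Relative quantum yields in PBS, probe absorbance adjusted below 0.1, references IR-783 (0.043), fluorescein (0.18), Cy3 (0.31). Excitation/emission ranges: PN(783) 730 nm/765–870 nm; PN(545) 515 nm/538–700 nm; PN(497) 450 nm/475–620 nm, maximum emission used. Triplicate, mean±SD.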

Data set [2] relates to HT-29, a human colon carcinoma cell line. In words: PN and peptide binding to cells (non-specific binding, FACS). Conditions: HT-29 cells, 30 min at 37° C., FACS. It counts as cell-based. Summed up:
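Cells seeded at 5×10^5 cells/well the day before, then rinsed and incubated 30 min at 37 °C in 2% FBS/DPBS (+Ca, +Mg) with nanoprobes (added as a 2 μM solution; concentration set spectrophotometrically via dye extinction coefficients). After trypsin/EDTA detachment, cell-associated fluorescence was read by FACS.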

A short description of data set [3]: PN pharmacokinetics, blood fluorescence fit to two-compartment model. Type of data set: in vivo, mouse. Conditions: for Alpha half-life / Alpha rate / Beta half-life / Beta rate: nude mice, IV, 10 nmole, biexponential fit; for k elim half-life / k elim rate / k perm half-life / k perm rate / k vas return half-life / k vas return rate: two-compartment model micro constant. On the procedure: Groups of 5 nude mice (female; 25-30 g; 6-8 weeks old; nu/nu) were injected (tail vein, IV) with 10 nmole of PN(783)4.3 or PN(783)10.0. 50 μl of blood was collected from tail tip at the indicated times. The blood was processed as above, and diluted (25 μl plasma, 700 μl of PBS). Fluorescence was measured with Cary Eclipse Fluorescence Spectrophotometer, excitation at 765 nm and emission from 790 to 880 nm. The fluorescence intensity at 806 nm was plotted over time, and the data was fit with two-phase decay curve. The fast and slow distribution half-life was given by the two-phase decay fit with Graphpad Prism software.
From the two-phase decay fit, a biexponential equation for blood concentration as a function of time, was obtained. By the relation of macro constants and micro constants, micro constants k's can be obtained, and the half-life was calculated by as described in Rosenbaum, S. E. Basic Pharmacokinetics and Pharmacodynamics: An Integrated Textbook and Computer Simulations, (John Wiley and Sons, Hoboken, N.J., 2011). The curve for interstitium concentration vs. time was fit with MATLAB based on the curve of blood concentration vs. time.
Serum fluorescence data from FIG. 24b and FIG. 24c was analyzed using the two-compartment model as described in Rosenbaum, S. E. Basic Pharmacokinetics and Pharmacodynamics: An Integrated Textbook and Computer Simulations, (John Wiley and Sons, Hoboken, N.J., 2011). Data were first fit to biexponential equation, yielding values of Alpha, Beta (apparent decay constants) and values of A and B as shown in equations 1 and 2 below.
By the relation of macro constants and micro constants, […]

The source of these data is patent publication US20150258217A1, “Methods of Synthesizing and Using Peg-Like Fluorochromes” (THE GENERAL HOSPITAL CORPORATION, priority 2012, published 2015).

Regarding “(DOTA)Lys(PEG5K)-Cys(IR-783) [PN(783)4.3]”, the “Quantum Yield” value in data set [1] (Table 3B, IR-783 dipeptides) came out at 0.17. Further, the “Quant. Yield” value in data set [1] is on record as 0.16. Moreover, the “Cell NSB (percent of cells with fluorescence higher than unstained cell)” value in data set [2] was found to be 20%. In data set [3], this substance gave an Alpha half-life of 0.13 h, an Alpha rate of 5.30 h⁻¹, a Beta half-life of 1.64 h and a Beta rate of 0.42 h⁻¹. In addition, in data set [3], the k elim half-life amounted to 1.01 h, the k elim rate stood at 0.68 h⁻¹, the k perm half-life amounted to 0.40 h and the k perm rate is 1.74 h⁻¹. In data set [3], the “k vas return half-life” value stood at 0.20 h and the “k vas return rate” value was 3.30 h⁻¹.
“(DOTA)Lys(PEG30K)-Cys(IR-783) [PN(783)10.0]”: the “Quant. Yield” value in data set [1] is on record as 0.16. Also, the “Cell NSB (percent of cells with fluorescence higher than unstained cell)” value in data set [2] stood at 18%. In data set [3], this substance had an Alpha half-life of 0.51 h, an Alpha rate of 1.36 h⁻¹, a Beta half-life of 7.0 h and a Beta rate of 0.099 h⁻¹. In data set [3], the k elim half-life is on record as 4.2 h, the k elim rate amounted to 0.24 h⁻¹, the k perm half-life was determined as 1.02 h and the k perm rate came to 0.67 h⁻¹. Moreover, in data set [3], the “k vas return half-life” value is 1.23 h and the “k vas return rate” value was determined as 0.56 h⁻¹.
